Source: US20180355012A1

Columns and labels:
[1] = target: HLA-A2/… pMHC complex (NY-ESO-1 tumor specific antigen); assay: BLI (forteBIO Oke), biotinylated pMHC on SA sensor, soluble TCR in solution, 1:1 fit
[2] = target: HLA-B4405: … pMHC complex
[3] = target: HLA-A1: … pMHC complex (MageA3 tumor specific antigen); assay: BLI (forteBIO Oke), biotinylated pMHC on SA sensor, soluble TCR in solution, 1:1 fit

Substance | Kd [3] [µM] | also measured
1G4 TCR with an artificial interchain disulfide bond between position 53 of TRAC*01 exon 1 and position 54 of TRBC1*01 or TRBC2*01 exon 1 | – | Kd [1]: 6.96 µM
LC13 TCR with an artificial interchain disulfide bond between position 10 of TRAC*01 exon 1 and posi | – | Kd [2]: 10 µM
MGA3 TCR with an artificial interchain disulfide bond between position 89 of TRAC*01 exon 1 and position 19 of TRBC1*01 or TRBC2*01 exon 1 | 2.04 | –

More lines, main results first:

Kd [3] [µM] | Substance | also measured
3.45 | MGA3 TCR with an artificial interchain disulfide bond between position 10 of TRAC*01 exon 1 and position 20 of TRBC1*01 or TRBC2*01 exon 1 | –
1.42 | MGA3 TCR with an artificial interchain disulfide bond between position 53 of TRAC*01 exon 1 and position 54 of TRBC1*01 or TRBC2*01 exon 1 | –
